Assay results taken from publication PMC9177701, “Taf2 mediates DNA binding of Taf14” (Nature Communications, 2022).
One block for each molecule: values may come before it. Ends that are not written are not given here. * marks the point of attachment. Crotonyl(E) = C/C=C/C(=O)*

How the values were obtained:
[1] = target: His-Taf14ET (S. cerevisiae) (UniProt P35189); assay: MST; His-tagged Taf14 protein labeled with RED-tris-NTA kept at 20 nM, unlabeled peptide added stepwise; 20 mM Tris-HCl pH 7.5, 150 mM NaCl, 0–0.2 mM TCEP; Monolith NT.115; n = 2 or 3
[2] = test system: Taf14dET (Saccharomyces cerevisiae); assay: EMSA; settings: EMSA: 20-25 mM Tris-HCl pH 7.5, 100-150 mM NaCl, 0.2 mM EDTA (+20% glycerol for NCP), 4 °C 10 min, 0.25 pmol/lane; NMR: 50 mM Tris pH 6.6-7.5, 150 mM NaCl or …
[3] = test system: Taf14dYEATS (Saccharomyces cerevisiae); assay: EMSA; settings: EMSA: 20-25 mM Tris-HCl pH 7.5, 100-150 mM NaCl, 0.2 mM EDTA (+20% glycerol for NCP), 4 °C 10 min, 0.25 pmol/lane; NMR: 50 mM Tris pH 6.6-7.5, 150 mM NaCl or …
[4] = target: FAM-labeled Taf2CT peptide (S. cerevisiae) (UniProt P23255); assay: MST; FAM-labeled Taf2CT peptide kept at 20 nM, Taf14ET varied; 20 mM Tris-HCl pH 7.5, 150 mM NaCl, 0–0.2 mM TCEP; Monolith NT.115; n = 3
Sequence of FAM-labeled Taf2CT peptide (S. cerevisiae) (P23255 whole entry, looked up, the tested form may be a part): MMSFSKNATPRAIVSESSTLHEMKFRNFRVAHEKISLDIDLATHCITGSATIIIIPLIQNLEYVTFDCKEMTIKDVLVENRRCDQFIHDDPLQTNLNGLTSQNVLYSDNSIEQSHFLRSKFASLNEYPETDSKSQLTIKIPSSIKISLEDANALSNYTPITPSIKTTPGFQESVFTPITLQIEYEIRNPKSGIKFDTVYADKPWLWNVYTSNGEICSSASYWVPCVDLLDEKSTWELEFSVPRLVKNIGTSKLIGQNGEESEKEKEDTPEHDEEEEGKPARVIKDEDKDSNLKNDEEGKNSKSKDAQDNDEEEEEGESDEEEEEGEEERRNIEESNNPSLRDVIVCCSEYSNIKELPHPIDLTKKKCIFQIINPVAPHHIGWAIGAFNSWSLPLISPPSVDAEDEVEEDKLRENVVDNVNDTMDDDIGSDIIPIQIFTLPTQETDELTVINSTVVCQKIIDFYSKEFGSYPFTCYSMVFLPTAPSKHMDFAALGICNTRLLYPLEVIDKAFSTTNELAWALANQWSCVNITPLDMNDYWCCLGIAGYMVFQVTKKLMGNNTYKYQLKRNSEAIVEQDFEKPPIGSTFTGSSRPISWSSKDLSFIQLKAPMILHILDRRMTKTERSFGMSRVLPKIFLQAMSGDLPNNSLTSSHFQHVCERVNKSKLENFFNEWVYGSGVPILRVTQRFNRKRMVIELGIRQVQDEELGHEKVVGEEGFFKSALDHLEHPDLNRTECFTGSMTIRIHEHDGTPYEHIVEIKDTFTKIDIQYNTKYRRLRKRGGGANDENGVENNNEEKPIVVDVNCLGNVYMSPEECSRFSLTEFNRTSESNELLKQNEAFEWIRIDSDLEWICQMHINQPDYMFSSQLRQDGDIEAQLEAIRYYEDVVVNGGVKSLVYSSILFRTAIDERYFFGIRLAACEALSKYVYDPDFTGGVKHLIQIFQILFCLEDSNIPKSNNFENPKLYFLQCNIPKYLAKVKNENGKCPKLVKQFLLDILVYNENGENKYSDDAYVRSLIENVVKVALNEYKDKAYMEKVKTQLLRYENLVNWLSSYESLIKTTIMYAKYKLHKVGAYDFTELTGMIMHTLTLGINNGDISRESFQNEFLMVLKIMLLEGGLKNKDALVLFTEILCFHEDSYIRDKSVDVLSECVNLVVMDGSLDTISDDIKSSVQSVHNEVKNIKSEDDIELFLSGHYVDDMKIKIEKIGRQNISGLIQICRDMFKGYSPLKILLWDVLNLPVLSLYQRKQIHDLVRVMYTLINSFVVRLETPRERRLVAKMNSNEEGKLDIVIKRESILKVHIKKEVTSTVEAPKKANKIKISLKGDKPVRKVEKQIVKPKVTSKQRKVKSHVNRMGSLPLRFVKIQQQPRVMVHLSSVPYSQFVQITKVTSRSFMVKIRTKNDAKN

[5] = target: T1, Taf14_(YEATS) (YEATS domain of Taf14, aa 1–137) (S. cerevisiae, UniProt P35189 1-137, uniformly 15N-labeled); assay: NMR titration; 1H,15N HSQC of 0.1–0.3 mM uniformly 15N-labeled Taf14 protein, unlabeled peptide added; 298 K; 50 mM Tris-HCl pH 6.6–7.5, 150 mM NaCl, 0–5 mM DTT or 0.2 mM TCEP, or 1x PBS pH 6.6–7.5; settings: both partners purified
T1 construct: Taf14, S. cerevisiae, YEATS domain, aa 1–137; source: E. coli Rosetta-2 (DE3) pLysS, minimal media with 15NH4Cl, purified
T1 sequence (looked up): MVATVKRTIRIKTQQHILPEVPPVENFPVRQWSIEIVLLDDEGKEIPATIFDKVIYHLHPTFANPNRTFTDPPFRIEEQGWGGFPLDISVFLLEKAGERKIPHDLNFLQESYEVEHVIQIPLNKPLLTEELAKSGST

[6] = target: T2, Taf14FL (full-length Taf14, aa 1–244) (S. cerevisiae, UniProt P35189 1-244); assay: as above; settings: both partners purified
T2 construct: Taf14 (transcription initiation factor subunit 14), S. cerevisiae, aa 1–244, a 244-residue protein; In the EMSAs (functional rows) GST-Taf14 or Taf14 proteins were used; source: E. coli Rosetta-2 (DE3) pLysS, purified (SEC for cross-linking; 15N-labeled for NMR)
T2 sequence (looked up): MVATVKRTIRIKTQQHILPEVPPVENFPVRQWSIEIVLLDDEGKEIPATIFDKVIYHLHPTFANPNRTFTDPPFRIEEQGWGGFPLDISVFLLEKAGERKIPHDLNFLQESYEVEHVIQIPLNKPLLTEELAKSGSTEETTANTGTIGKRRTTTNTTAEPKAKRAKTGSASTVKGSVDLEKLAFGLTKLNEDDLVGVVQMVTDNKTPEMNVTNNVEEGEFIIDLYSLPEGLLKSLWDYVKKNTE

Taf14FL = Taf14FL (Saccharomyces cerevisiae, UniProt P35189 1-244); assay: EMSA; EMSA: 20-25 mM Tris-HCl pH 7.5, 100-150 mM NaCl, 0.2 mM EDTA (+20% glycerol for NCP), 4 °C 10 min, 0.25 pmol/lane; NMR: 50 mM Tris pH 6.6-7.5, 150 mM NaCl or 1x PBS, 298 K; settings: protein: recombinant; 15N-labelled for NMR; 5' overhang 1 nt (extra T on strand 2 as printed)
Taf14FL;Taf2CT = Taf14FL;Taf2CT (Saccharomyces cerevisiae;Saccharomyces …, UniProt P35189;P23255 1-244;1392-1402, |); assay: EMSA; Taf14:Taf2CT 1:10; augmented vs Taf14FL alone; EMSA: 20-25 mM Tris-HCl pH 7.5, 100-150 mM NaCl, 0.2 mM EDTA (+20% glycerol for NCP), 4 °C 10 min, 0.25 pmol/lane; NMR: 50 mM Tris pH 6.6-7.5, 150 mM NaCl or 1x PBS, 298 K; settings: 15N-labelled for NMR;; 5' overhang 1 nt (extra T on strand 2 as printed)
His-Taf14FL = target: T3, His-Taf14FL (S. cerevisiae, UniProt P35189 1-244); assay: MST; His-tagged Taf14 protein labeled with RED-tris-NTA kept at 20 nM, unlabeled peptide added stepwise; 20 mM Tris-HCl pH 7.5, 150 mM NaCl, 0–0.2 mM TCEP; Monolith NT.115; n = 2 or 3; settings: both partners purified
T3 construct: Taf14, S. cerevisiae, aa 1–244; Labelled on the His tag with the His-Tag Labeling Kit RED-tris-NTA (2nd Generation) for MST; source: E. coli Rosetta-2 (DE3) pLysS, purified (Ni-NTA, SEC)
T3 sequence (looked up): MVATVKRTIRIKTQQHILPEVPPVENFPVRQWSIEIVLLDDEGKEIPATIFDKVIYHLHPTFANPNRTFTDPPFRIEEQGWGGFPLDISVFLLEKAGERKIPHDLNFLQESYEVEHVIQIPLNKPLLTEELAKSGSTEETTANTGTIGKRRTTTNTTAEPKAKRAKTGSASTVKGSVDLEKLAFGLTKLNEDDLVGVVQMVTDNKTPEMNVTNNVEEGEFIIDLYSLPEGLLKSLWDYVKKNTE

His-Taf14_(YEATS) = target: T4, His-Taf14_(YEATS) (S. cerevisiae, UniProt P35189 1-137); assay: as above; settings: both partners purified
T4 construct: Taf14, S. cerevisiae, YEATS domain, aa 1–137; Labelled on the His tag with the His-Tag Labeling Kit RED-tris-NTA (2nd Generation) for MST; source: E. coli Rosetta-2 (DE3) pLysS, purified (Ni-NTA, SEC)
T4 sequence (looked up): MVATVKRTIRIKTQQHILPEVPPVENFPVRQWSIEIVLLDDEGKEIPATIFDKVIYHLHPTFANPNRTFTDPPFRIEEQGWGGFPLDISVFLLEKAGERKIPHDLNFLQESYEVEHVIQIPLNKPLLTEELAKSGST

Molecule: Taf14_(Linker) peptide (aa 145–169 of Taf14) (from UniProt P35189 145-169)
Kd [1]: 640 µM

Molecule: 601 Widom DNA 147 bp
binding signal (fold tighter than Taf14FL) [2]: > 6
binding signal (fold tighter than Taf14FL) [3]: > 6

Molecule: Taf14ET (ET domain of Taf14, aa 168–243) (from UniProt P35189 168-243) (domain or fragment)
Kd [4]: 1.6 µM

B3: 37 bp non-specific dsDNA (dsDNA)
DNA 1: CGTGTCAGATATATACATCCGATATCAGATCTCGTCA
DNA 2: TTGACGAGATCTGATATCGGATGTATATATCTGACACG
binding result (Taf14FL): binds
binding result (Taf14FL;Taf2CT): binds

B4: Taf2CT peptide (aa 1392–1402 of Taf2) (peptide, UniProt P23255 1392-1402, looked up)
peptide: SRSFMVKIRTK
notes: Taf2, subunit of yeast TFIID, C-terminal hxhKh motif-containing tail, aa 1392–1402; also called Taf2 peptide; C-terminal tail of Taf2; source: synthetic peptide (Synpeptide)
Kd (His-Taf14FL): 0.7 µM
Kd (His-Taf14_(YEATS)): 6 µM

Continued, values first:

binding result [5]: binds
B1: H3K9cr_(5-13) peptide (residues 5–13 of H3) (peptide, UniProt P61830 6-14, looked up)
peptide: QTARK(Crotonyl(E))STGG
notes: also called H3K9cr peptide; source: synthetic peptide (Synpeptide)

binding result [6]: binds
B2: H3K9cr_(1-19) peptide (peptide, UniProt P61830 2-20, looked up)
peptide: ARTKQTARKSTGGKAPRKQ
modifications: crotonyl-lysine at 9
notes: the NMR methods list only H3K9cr_(5-13)
